From the nanobody polyreactivity screen of Harvey et al. (2022) come the findings set out here.

This series can be described thus: yeast display, Sf9 membrane polyspecificity reagent, FACS + sequencing; frameworks hold sequencing errors. The gist of the method: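 Using colony PCR, genes from sorted yeast display clones were amplified, then sequenced on MiSeq at 2 × 250 and filtered by CDR length. The clones had been stained with 10% biotinylated, detergent-solubilized Sf9 membrane reagent for 1 hour at 4 °C and sorted by FACS into low and high (top ~1%) gates on anti-HA and streptavidin fluorescence. Polyreactivity labels come from the gate of origin.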
Take “QVQLVESGVRLVQAGGRLRLSCAASGRIFDHNAMGWYRQAPGKERELVAAIDSGTSTNYADSVKGRFTISRDNAKNTVYLQMNSLKPEDTAVYYCARLLGPVRHKYDYDYWGQGTQVTVSS”: the “polyreactivity (PSR sort gate)” value was “low polyreactivity”.

As to “QVQLVESGVRLVQAGGSLRLSCAASGRTLKYNAMGWYIQAPGKERELVAAISYSGSSTYYADSVRGRFTISRDNAKNTVYLQMNSLKPEDTAVYYFNTARPTAAYDYWGQGTQVTVSS”, the “polyreactivity (PSR sort gate)” value is “low polyreactivity”.

As for “QVQLVESGVRLVQAVGSHRLSCAASASIIDGNSMGWYRQAPGKERELGAVISSRGTRTYYADSVKGRFTISRDNAKKTVYLQMNILKPEDTAVYYCNTRTSDLNGSGDYWGLGTQVTVSS”, the “polyreactivity (PSR sort gate)” value was “high polyreactivity”.

Take “QVQLVESGVVLVQAGGSLRLSCAASGTIFDLNAMGWYRQAPGKEREFVAAISSGGGTYYADSVKGRFTISRDNANNTVYLQMNSQKPEDTAVYYCKARARRYGGRYYYWGQGTQVTVSS”: the “polyreactivity (PSR sort gate)” value is on record as “high polyreactivity”.

With “QVQLVESPGGLDQAGGSLRLSGAASGSTLYDNAMGWYRQAPGKERELVAAISRSGGRTYYADSVKGRFTISRDNAKNTVYLHMNSLIPEDTAVYYCNAVVNGPGNYVTYDSWGQGTQVTVSS”, the “polyreactivity (PSR sort gate)” value is “high polyreactivity”.

“QVQLVESRGGIVQAGGSLRLSCAASGRIFNNYAMGCYRQAPGKERELDAAISGGGSTNYADSVKGRFTISRDNETNTVYLQMNSLKPEDTAVYYSATGYLKASRDLYETVPYDYWGQGTQVTVSS”: the “polyreactivity (PSR sort gate)” value was “low polyreactivity”.

As to “QVQLVESRGGIVQAGGSLRLSSAASGSTFAYNDLGWYRQAPGKERQLVADMRSGGNTNYADSVKGRFTISRDNAKNTVYLQMNSLKPEDTAVYYCATDGYRIDVYHPDYRYDYWGLGTQVTVSS”, the “polyreactivity (PSR sort gate)” value was “low polyreactivity”.

As for “QVQLVESRGGLLQAGGSLRLSCAASGSIFKYYSMGSYRQAPGKERELVAAIRWSGGTTYYADSVKGRFTISRDNAKNTVYLQMNSLKPEDTAVYYCAAEYFNQNTREGYDYWGQGSQVTVSS”, the “polyreactivity (PSR sort gate)” value is listed as “low polyreactivity”.

Consider “QVQLVESRGGLVQAGGSLLLSFAASGRTYPYNAMGWYIQAPRKERELVAGISSGGTTTYADSVKGRFTISRDNAKNTVYLQMNSLKPEDTAVYYCAATVIIFDHSLPGWDDYDYWGQGTQVTVSS”, for which the “polyreactivity (PSR sort gate)” value was “low polyreactivity”.

As for “QVQLVESRGGLVQAGGSLPLSCAASGFIFTSYAMGWYRQAHGKEREFVAAISGSGGSTYYADSVKGRFTISRDNAKNTVYLQMNSLKPEDTAVYYCAAESWVGYYLYWYDYWGQGTQVTVSS”, the “polyreactivity (PSR sort gate)” value is reported as “high polyreactivity”.

On to “QVQLVESRGGLVQAGGSLRLRCAASGFIFGYNVMGWYRQAPGKERELVASISTGGRTYYADSVKGRFTISRDNAKNTVYLQMNSLKPEDTAVYYCAARYRSYSYLYYSWGQGTQVTVSS”, for which the “polyreactivity (PSR sort gate)” value is on record as “high polyreactivity”.

“QVQLVESRGGLVQAGGSLRLSCAASGFIFFQYAMGWYRQAPGTERELVAAISGSGVTTYYADSVKGRFTISRDNAKNTVYLQMNSLKPEDTAVYYCNAALRWKYDWGQGTQVTVSS”: the “polyreactivity (PSR sort gate)” value was “low polyreactivity”.

With “QVQLVESRGGLVQAGGSLRLSCAASGFIFGYYALGWYRQAPGKEWELVAAITNGGRTYYADSVKGRFTISRDNAKNTVYLQMISLKPEDTAVYYCAARPSWWSALFDSWGQGTQVTVSS”, the “polyreactivity (PSR sort gate)” value is listed as “low polyreactivity”.

Consider “QVQLVESRGGLVQAGGSLRLSCAASGFIFSRYGMGWYRQAPGKERELVAAISRSGGSTYYADSVKGRFTISRDNAKNTVYVQMNSLKPEDTAVYYCATAYSWRNADWFAYSYDYWGQGTQVTVSS”, for which the “polyreactivity (PSR sort gate)” value was “low polyreactivity”.

“QVQLVESRGGLVQAGGSLRLSCAASGFTFDNYGMGWYSQAPGKERELVAAISKSGTSTYYADSGKGRFTITRDNAKNTVYLQMNSLNPEDTAVYYCSGALPGYGDYYYWGQGTQVTVSS”: the “polyreactivity (PSR sort gate)” value is listed as “high polyreactivity”.

With “QVQLVESRGGLVQAGGSLRLSCAASGFTFFVYPMGWYRQAAGKERELVAVITSGGTTNYADSVKGRFTISRDNAKNTVYLQMNSLIPEDTAVYYCATDNGGIPKYVPYDYWGQGTQGTVSS”, the “polyreactivity (PSR sort gate)” value is “high polyreactivity”.

Turning to “QVQLVESRGGLVQAGGSLRLSCAASGFTFVGYAMGWYRQAPGKERALVAAISRRGTPTYYADSVKGRFTISRDNAKNTVYLQMNSLKPEDTAVYFCAASNGYQAVTYDYWGQGTQVTVSS”, the “polyreactivity (PSR sort gate)” value is reported as “high polyreactivity”.

On to “QVQLVESRGGLVQAGGSLRLSCAASGITFTIYAMGWYRQAPGKERELVAAITWTSDITHYADSVKGRFTISRDNAKNTVYLQMISLKPEDTAVYYCAATTWDEYDYWGQGTQVTVSS”, for which the “polyreactivity (PSR sort gate)” value is listed as “high polyreactivity”.

With “QVQLVESRGGLVQAGGSLRLSCAASGITSRLNAMVWYRQAPGKERELVAGISRGGGTTYYADSVKGRFTISRDNAKNTVYLQMNSLKTEDTAVYYCAAAYRVRGGTYDSWGQGTQVTVSS”, the “polyreactivity (PSR sort gate)” value is on record as “high polyreactivity”.

On to “QVQLVESRGGLVQAGGSLRLSCAASGLTFVYYAMGWYRQAPGKERELVASIDYSGSSTYYADSVKGRFTISRDNAKNTVYLQMNSLKPEDTAVYYCAATDSGEYWGQGTQVTVSS”, for which the “polyreactivity (PSR sort gate)” value was “low polyreactivity”.

Consider “QVQLVESRGGLVQAGGSLRLSCAASGRIFNAYAMGWYRQAPGKERELVAAITVSGTRTYYADSVKGRFTISRDNAKNTVYLQMNSLKPEDTAVYYCAAEVVNYWYSYDYWGQGTQVTVSS”, for which the “polyreactivity (PSR sort gate)” value is listed as “high polyreactivity”.

On to “QVQLVESRGGLVQAGGSLRLSCAASGRILYVNDMGWYRQAPRKERELVAAISWRGGRTYYADSVKGRFTISRDNAKNTVYLQMNSLKPEDTAVYYCAARARGGYQRDYYWGQGTQVTVSS”, for which the “polyreactivity (PSR sort gate)” value was “high polyreactivity”.

Take “QVQLVESRGGLVQAGGSLRLSCAASGRNFPINTMGWYRQAPGKERELVAAIRTSGSSTYADSVKGRFTISRDNAKNSVYLQMNSLKPEDTAVYYCNTKYPGRGYYWGQGTQVTVSS”: the “polyreactivity (PSR sort gate)” value was “high polyreactivity”.

For the sequence “QVQLVESRGGLVQAGGSLRLSCAASGRTFYSYAMGWSRQAPGKERELVAAITSSGGSTYYADSVKGRFTISRDNAKNTVYLQMNSLKPEDTAVYYCAAGKPYSSYWSWGYWTNLEDDYWGQGTQVTVSS”, the “polyreactivity (PSR sort gate)” value is recorded as “high polyreactivity”.

In the case of “QVQLVESRGGLVQAGGSLRLSCAASGRTIINYAMGCYRQAPRKERELVAAITTGGRTNYADSVKGRFTISRDNAQNTVYLQMNSMKPEDTAVYYCNAVRYYRYYYWGQGTQVTVSS”, the “polyreactivity (PSR sort gate)” value is recorded as “low polyreactivity”.

Take “QVQLVESRGGLVQAGGSLRLSCAASGSIFDSYAMGWYRQAPGKERELVADISSGGSTYYADSVKGRFTISRDNAKNTVYLQMNSLKPEDTAVYYCAAQYVYYFYGDEAFTDDYWGQGTQVTVSS”: the “polyreactivity (PSR sort gate)” value was “low polyreactivity”.

For the sequence “QVQLVESRGGLVQAGGSLRLSCAASGSIFGRNAMGWYRQAPGKERELVAAIRSGDSTNYADSVKGRFTISRDNAKNTVYLQMNSLKPEDTAVYYCAADYIFWHRRDKKSVVMDYWGQGTQVTVSS”, the “polyreactivity (PSR sort gate)” value was “low polyreactivity”.

With “QVQLVESRGGLVQAGGSLRLSCAASGSIFLVYAMGWYRQAPGKERELVAAIDSSGGSTYYADSVKGRFTISRDNAKNTVYLQMNSLKREDTAVYYCAVYIRYPWSGRYDYWGQGTQVTVSS”, the “polyreactivity (PSR sort gate)” value is recorded as “high polyreactivity”.

In the case of “QVQLVESRGGLVQAGGSLRLSCAASGSIFNANAMGWYRQAPGKEREIVAAITRAGGGTYYADSVKGRFTISRVNAKNTVYLQMNRLKPEDTAVYYCAREVFFYASTGQTYGYWGQGTQVTVSS”, the “polyreactivity (PSR sort gate)” value is recorded as “high polyreactivity”.

Take “QVQLVESRGGLVQAGGSLRLSCAASGSIFTSYAMGWYRQAPGKERELVAAINGSGGSTFYADSVKGRFTISRDNAKNTVYLQMNSLKPQDTAVYYCNTGGPRGTTYDYWGQGTQVTVSS”: the “polyreactivity (PSR sort gate)” value was “low polyreactivity”.

For “QVQLVESRGGLVQAGGSLRLSCAASGSILVRYAMGWDRQAPGKERELVAAITGTSGGTYYADSVKGRFTISRDNAKNTVYLQMNSLKPEDTAVYYCNADGGSGAYLDLTITDYDYWGQGTQVTVSS”, the “polyreactivity (PSR sort gate)” value was “low polyreactivity”.

“QVQLVESRGGLVQAGGSLRLSCAASGSNFYRNALGWYRQAPGKERELVAAISSDGSTNYADSVKGRFTISRDNAKNTVYLQLNSLKPEDTAVYSCAPHDRWHHRSLPYEYWGQGTQVTVSS”: the “polyreactivity (PSR sort gate)” value is “low polyreactivity”.

Regarding “QVQLVESRGGLVQAGGSLRLSCAASGYIFSYNAMGCYRQAPGKERELVAATSSRGGSTYYADSVKGRFTISRDNAKNPDYLQMNSLKPEDTAVYFCAVSSRRVDTEPYDYWGQGTQVTVSS”, the “polyreactivity (PSR sort gate)” value is “high polyreactivity”.

With “QVQLVESRGGLVQAGGSLRLSCAASRRIFVRNAIGWYIQEPGKERELVAAISSSGGPTYYADSVKGRFTISRDNAKNTVYLQMNSLKPEDTAVYYCAASSSNKEYDYWGQGTQVTVSS”, the “polyreactivity (PSR sort gate)” value is reported as “high polyreactivity”.

With “QVQLVESRGGLVQAGGSLRLSCAPSGIIFVRYAMGWYRQAPGKETELVAAISSSGGSTYYADSVKGRFTISRDNAKKTVYLQMNSLKPEDTAVYYCNARHRQWARGYWGQGTQVTVSS”, the “polyreactivity (PSR sort gate)” value was “high polyreactivity”.

In the case of “QVQLVESRGGLVQAGGSLRLSCASSGSIFFSNAMGWYRQAPGKERELVAAISKSGGSTYYADSVKGRFTISRDNAKNTVYLQMNSLKPEDTAVYYCAAERTFLYWAYDYWGQGTQVTVSS”, the “polyreactivity (PSR sort gate)” value was “high polyreactivity”.

For the sequence “QVQLVESRGGLVQAGGSLRLSCASSGSTFVPNAMGWYRQAPGNERELDAAITFSGGTTYYADSVKGRFTISRDNAKNTVYFQMNSLKPEDTAVYDCAADYFSNLWWSGHAWRYYYWGQGTQVTVSS”, the “polyreactivity (PSR sort gate)” value is “low polyreactivity”.

For the sequence “QVQLVESRGGLVQAGGSLRLSCATSGRIFAKYAMGWYRQAPGKESELVAAITTTGRTYYADSVKGRFTISRDNAKNTVYLQMNSLKPEDTAVYYCAVGYHAPKVSTSDARYDYWGQGTQVTVSS”, the “polyreactivity (PSR sort gate)” value was “low polyreactivity”.

With “QVQLVESRGGLVQAGGSLRLSCDASGIIFVKYAMGWYRQAPGKERELVAAITSGGSTYYADSVKVRFTISRDNAKNTVYLQMNSLKPEDTAVYYCNADSWFLYYFTINGYWGQGTQVTVSS”, the “polyreactivity (PSR sort gate)” value is reported as “high polyreactivity”.

As for “QVQLVESRGGLVQAGGSLRLSFAASGSIFTPYTMGWDRPAPGKERELVAAITGSAGSTYYADSVKGRFTISRDNAKNTVYLQMNSLKPEDTAVYYCAAAVWGVYQWYYYWGQGTQVTVSS”, the “polyreactivity (PSR sort gate)” value is reported as “high polyreactivity”.
